This is an account of results in paper PMC11853027.

In this assay the target is LS174T cells. Put plainly: cell-binding assay, cell-bound Hoc detected by Western blot. The settings on record: After 1.5 h of incubation; parent: est. 1.0; read off a plot.
For the substance “Hoc protein of phage ΦPNJ-9 (wild type, recombinant) T185”, the other: Ratio of Hoc/MUC2 was found to be 0.47. For the substance “Hoc protein of phage ΦPNJ-9 (wild type, recombinant) S183”, the other: Ratio of Hoc/MUC2 was 0.53. “Hoc protein of phage ΦPNJ-9 (wild type, recombinant) L184”: the other: Ratio of Hoc/MUC2 was 0.5.
